According to PMC2757162 (Journal of molecular biology, 2008):

Biological target: the molecule itself

B1: Herpes simplex virus type 1 SSB/recombination protein ICP8 (natural protein)
chain: METKPKTATTIKVPPGPLGYVYARACPSEGIELLALLSARSGDSDVAVAPLVVGLTVESGFEANVAVVVGSRTTGLGGTAVSLKLTPSHYSSSVYVFHGGRHLDPSTQAPNLTRLCERARRHFGFSDYTPRPGDLKHETTGEALCERLGLDPDRALLYLVVTEGFKEAVCINNTFLHLGGSDKVTIGGAEVHRIPVYPLQLFMPDFSRVIAEPFNANHRSIGEKFTYPLPFFNRPLNRLLFEAVVGPAAVALRCRNVDAVARAAAHLAFDENHEGAALPADITFTAFEASQGKTPRGGRDGGGKGAAGGFEQRLASVMAGDAALALESIVSMAVFDEPPTDISAWPLFEGQDTAAARANAVGAYLARAAGLVGAMVFSTNSALHLTEVDDAGPADPKDHSKPSFYRFFLVPGTHVAANPQVDREGHVVPGFEGRPTAPLVGGTQEFAGEHLAMLCGFSPALLAKMLFYLERCDGAVIVGRQEMDVFRYVADSNQTDVPCNLCTFDTRHACVHTTLMRLRARHPKFASAARGAIGVFGTMNSMYSDCDVLGNYAAFSALKRADGSETARTIMQETYRAATERVMAELETLQYVDQAVPTAMGRLETIITNREALHTVVNNVRQVVDREVEQLMRNLVEGRNFKFRDGLGEANHAMSLTLDPYACGPCPLLQLLGRRSNLAVYQDLALSQCHGVFAGQSVEGRNFRNQFQPVLRRRVMDMFNNGFLSAKTLTVALSEGAAICAPSLTAGQTAPAESSFEGDVARVTLGFPKELRVKSRVLFAGASANASEAAKARVASLQSAYQKPDKRVDILLGPLGFLLKQFHAAIFPNGKPPGSNQPNPQWFWTALQRNQLPARLLSREDIETIAFIKKFSLDYGAINFINLAPNNVSELAMYYMANQILRYCDHSTYFINTLTAIIAGSRRPPSVQAAAAWSAQGGAGLEAGARALMDAVDAHPGAWTSMFASCNLLRPVMAARPMVVLGLSISKYYGMAGNDRVFQAGNWASLMGGKNACPLLIFDRTRKFVLACPRAGFVCAASSLGGGAHESSLCEQLRGIISEGGAAVASSVFVATVKSLGPRTQQLQIEDWLALLEDEYLSEEMMELTARALERGNGEWSTDAALEVAHEAEALVSQLGNAGEVFNFGDFGCEDDNATPFGGPGAPGPAFAGRKRAFHGDDPFGEGPPDKKGDLTLDML
**Q.** Does B1 bind?
**A.** binds
